Experimental data reported in patent publication US20170081400A1 (CEPHALON, published 2017).
Where a chain is given by its changes, count along the chain named. Names and notes keep the numbering of the source.

T1: human TL1A extracellular domain with N-terminal HIS and FLAG tag (human, UniProt O95150 72-251)
T1 construct: the whole entry is named
T1 sequence: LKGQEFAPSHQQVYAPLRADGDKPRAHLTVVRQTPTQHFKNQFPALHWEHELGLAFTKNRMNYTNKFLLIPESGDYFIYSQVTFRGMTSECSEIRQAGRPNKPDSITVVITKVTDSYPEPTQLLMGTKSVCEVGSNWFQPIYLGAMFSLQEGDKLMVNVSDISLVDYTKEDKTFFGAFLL

B1: 320-315 (antibody, human IgG1, name in Kabat numbering, V domains shown)
VH: QVQLVQSGAEVKKPGASVKVSCKASGYTFTSYDINWVRQAPGQGLEWMGWLNPNSGNTGYAQKFQGRVTMTADRSTSTAYMELSSLRSEDTAVYYCAREVPETAAFEYWGQGTLVTVSS
VL: QSVLTQPPSVSGAPGQRVTISCTSSSSDIGAGLGVHWYQQLPGTAPKLLIEGYYNRPSGVPDRFSGSKSGTSASLTITGLLPEDEGDYYCLSYDGTLSALFGGGTKLTVLG
notes: human IgG1, lambda
B2: 320-400 (antibody, human IgG1, name in Kabat numbering, V domains shown)
VH: B1 VH with Y27D
VL: B1 VL with L91Q
notes: human IgG1, lambda
B3: 320-401 (antibody, human IgG1, name in Kabat numbering, V domains shown)
VH: B1 VH with Y27H
VL: B1 VL with L91Q
notes: human IgG1, lambda
B4: 320-402 (antibody, human IgG1, name in Kabat numbering, V domains shown)
VH: B1 VH with Y27L
VL: B1 VL with L91Q
notes: human IgG1, lambda
B5: 320-403 (antibody, human IgG1, name in Kabat numbering, V domains shown)
VH: B1 VH with Y27W
VL: B1 VL with L91Q
notes: human IgG1, lambda
B6: 320-404 (antibody, human IgG1, name in Kabat numbering, V domains shown)
VH: B1 VH with T28A
VL: B1 VL with L91Q
notes: human IgG1, lambda
B7: 320-405 (antibody, human IgG1, name in Kabat numbering, V domains shown)
VH: B1 VH with T28S
VL: B1 VL with L91Q
notes: human IgG1, lambda
B8: 320-406 (antibody, human IgG1, name in Kabat numbering, V domains shown)
VH: B1 VH with T28Q
VL: B1 VL with L91Q
notes: human IgG1, lambda
B9: 320-407 (antibody, human IgG1, name in Kabat numbering, V domains shown)
VH: B1 VH with T28D
VL: B1 VL with L91Q
notes: human IgG1, lambda
B10: 320-408 (antibody, human IgG1, name in Kabat numbering, V domains shown)
VH: B1 VH with T28H
VL: B1 VL with L91Q
notes: human IgG1, lambda
B11: 320-409 (antibody, human IgG1, name in Kabat numbering, V domains shown)
VH: B1 VH with T28K
VL: B1 VL with L91Q
notes: human IgG1, lambda
B12: 320-410 (antibody, human IgG1, name in Kabat numbering, V domains shown)
VH: B1 VH with T28L
VL: B1 VL with L91Q
notes: human IgG1, lambda
B13: 320-411 (antibody, human IgG1, name in Kabat numbering, V domains shown)
VH: B1 VH with T28W
VL: B1 VL with L91Q
notes: human IgG1, lambda
B14: 320-412 (antibody, human IgG1, name in Kabat numbering, V domains shown)
VH: B1 VH with T28Y
VL: B1 VL with L91Q
notes: human IgG1, lambda
B15: 320-413 (antibody, human IgG1, name in Kabat numbering, V domains shown)
VH: B1 VH with F29A
VL: B1 VL with L91Q
notes: human IgG1, lambda
B16: 320-414 (antibody, human IgG1, name in Kabat numbering, V domains shown)
VH: B1 VH with F29S
VL: B1 VL with L91Q
notes: human IgG1, lambda
B17: 320-415 (antibody, human IgG1, name in Kabat numbering, V domains shown)
VH: B1 VH with F29Q
VL: B1 VL with L91Q
notes: human IgG1, lambda
B18: 320-416 (antibody, human IgG1, name in Kabat numbering, V domains shown)
VH: B1 VH with F29D
VL: B1 VL with L91Q
notes: human IgG1, lambda
B19: 320-417 (antibody, human IgG1, name in Kabat numbering, V domains shown)
VH: B1 VH with F29H
VL: B1 VL with L91Q
notes: human IgG1, lambda
B20: 320-418 (antibody, human IgG1, name in Kabat numbering, V domains shown)
VH: B1 VH with F29K
VL: B1 VL with L91Q
notes: human IgG1, lambda
B21: 320-419 (antibody, human IgG1, name in Kabat numbering, V domains shown)
VH: B1 VH with F29L
VL: B1 VL with L91Q
notes: human IgG1, lambda
B22: 320-420 (antibody, human IgG1, name in Kabat numbering, V domains shown)
VH: B1 VH with F29W
VL: B1 VL with L91Q
notes: human IgG1, lambda
B23: 320-422 (antibody, human IgG1, name in Kabat numbering, V domains shown)
VH: B1 VH with T30A
VL: B1 VL with L91Q
notes: human IgG1, lambda
B24: 320-423 (antibody, human IgG1, name in Kabat numbering, V domains shown)
VH: B1 VH with T30S
VL: B1 VL with L91Q
notes: human IgG1, lambda
B25: 320-424 (antibody, human IgG1, name in Kabat numbering, V domains shown)
VH: B1 VH with T30Q
VL: B1 VL with L91Q
notes: human IgG1, lambda
B26: 320-425 (antibody, human IgG1, name in Kabat numbering, V domains shown)
VH: B1 VH with T30D
VL: B1 VL with L91Q
notes: human IgG1, lambda
B27: 320-426 (antibody, human IgG1, name in Kabat numbering, V domains shown)
VH: B1 VH with T30H
VL: B1 VL with L91Q
notes: human IgG1, lambda
B28: 320-427 (antibody, human IgG1, name in Kabat numbering, V domains shown)
VH: B1 VH with T30K
VL: B1 VL with L91Q
notes: human IgG1, lambda
B29: 320-428 (antibody, human IgG1, name in Kabat numbering, V domains shown)
VH: B1 VH with T30L
VL: B1 VL with L91Q
notes: human IgG1, lambda
B30: 320-429 (antibody, human IgG1, name in Kabat numbering, V domains shown)
VH: B1 VH with T30W
VL: B1 VL with L91Q
notes: human IgG1, lambda
B31: 320-430 (antibody, human IgG1, name in Kabat numbering, V domains shown)
VH: B1 VH with T30Y
VL: B1 VL with L91Q
notes: human IgG1, lambda
B32: 320-431 (antibody, human IgG1, name in Kabat numbering, V domains shown)
VH: B1 VH with S31A
VL: B1 VL with L91Q
notes: human IgG1, lambda
B33: 320-421 (antibody, human IgG1, V domains shown)
VH: B1 VH with F29Y
VL: QSVLTQPPSVSGAPGQRVTISCTSSSSDIGAGLGVHWYQQLPGTAPKLLIEGYYNRPSGVPDRFSGSKSGTSASLTITGLLPEDEGDYYCQSYDGTLSALFGGGTKLTVL
notes: human IgG1, lambda; the other rows have T at 28 and F at 29, so F29Y is probably meant

What was measured:
[1] = biological target: T1, human TL1A extracellular domain with …; assay: SPR Run 4, purified Ab captured on Protein A, TL1A 5 ug/mL, timepoint 44
Text: (§1) 1.5. Antibody expression and antigen binding as determined by SPR. Using a CM5 sensor chip (GE Healthcare) Protein A (Pierce) was coupled to the chip surface using an amine coupling kit (GE Healthcare). Protein A was coupled on flow cell 1 and 2 (or alternatively 3 and 4) using a BIACORE® T200. […] The amount of supernatant or purified protein (as well as the concentration) injected during the capture stage varied between runs and is specified in the header of the Tables 3-11. At the end of injection of the supernatant or purified antibody the change in response units was measured. This value was reported as Capture Level in Tables 3-11. […] The response units were measured prior to the end of the dissociation phase. […] The sensorgrams were double referenced (flow cell 2 is subtracted from flow cell 1 and a buffer blank). As there were a large number of antibody variants to screen, these were screened across different runs (Tables 3-11). […] A summary of the conditions used in each run is below:
(§2) 2.1. […] In some experiment the antibodies were purified using Protein A chromatography (See 1.4) and purified antibodies were used in BIACORE® (GE Healthcare) experiments.

[2] = biological target: T1, human TL1A extracellular domain with …; assay: SPR Run 4, purified Ab captured on Protein A, TL1A 5 ug/mL, timepoint 220
Text: as §1, §2

[3] = biological target: T1, human TL1A extracellular domain with …; assay: SPR Run 5, Ab from supernatant captured on Protein A, TL1A 5 ug/mL, timepoint 44
Text: as §1, §2

[4] = biological target: T1, human TL1A extracellular domain with …; assay: SPR Run 5, Ab from supernatant captured on Protein A, TL1A 5 ug/mL, timepoint 220
Text: as §1, §2

TL1A Binding Level (Early) [1] [RU] | TL1A Binding Level (Late) [2] [RU] | TL1A Binding Level (Early) [3] [RU] | TL1A Binding Level (Late) [4] [RU] | Binder
85 | 82 |  |  | B1
 |  | 11 | 11 | B2
 |  | 11 | 10 | B3
 |  | 11 | 10 | B4
 |  | 11 | 10 | B5
 |  | 11 | 10 | B6
 |  | 10 | 9 | B7
 |  | 8 | 7 | B8
 |  | 12 | 11 | B9
 |  | 13 | 12 | B10
 |  | 10 | 10 | B11
 |  | 11 | 10 | B12
 |  | 10 | 9 | B13
 |  | 10 | 9 | B14
 |  | 9 | 8 | B15
 |  | 7 | 7 | B16
 |  | 5 | 4 | B17

TL1A Binding Level (Early) [1] [RU] | TL1A Binding Level (Late) [2] [RU] | TL1A Binding Level (Early) [3] [RU] | TL1A Binding Level (Late) [4] [RU] | Binder
 |  | 9 | 8 | B18
 |  | 9 | 8 | B19
 |  | 10 | 9 | B20
 |  | 11 | 9 | B21
 |  | 11 | 10 | B22
 |  | 10 | 9 | B23
 |  | 10 | 10 | B24
 |  | 11 | 10 | B25
 |  | 14 | 12 | B26
 |  | 10 | 9 | B27
 |  | 11 | 10 | B28
 |  | 11 | 10 | B29
 |  | 12 | 11 | B30
 |  | 6 | 6 | B31
 |  | 6 | 6 | B32
 |  | 9 | 8 | B33
